For assay [1], the target named is L17C APP-eGFP (human APP751 with leucine 17 of the Aβ sequence mutated to cysteine, fused to eGFP) (human). Nature of the assay: FRET or BRET; homoFRET by tr-FAIM under TIRF excitation (s polarized light), at the plasma membrane; objective 60x NA 1.49; living HEK293 cells, 37°C, 5% CO2. (Bioluminescence resonance energy transfer reports proximity on the nanometre scale.)

For assay [2] the target is unchanged. Nature of the assay: FRET or BRET; homoFRET by time-resolved fluorescence anisotropy imaging (tr-FAIM), epifluorescence excitation, objective 60x NA 1.49, xNA = 1.2; living HEK293 cells, 37°C, 5% CO2.
The target in assay [3] is enhanced Green Fluorescent Protein (eGFP), cytosolic. The description is as above.

For “L17C APP-eGFP (human APP751 with leucine 17 of the Aβ sequence mutated to cysteine, fused to eGFP) (natural protein)”, the depolarization time associated with energy transfer (homoFRET) in assay [1] was 5.4 ns; in assay [2] it was 2.4 ns. For “enhanced Green Fluorescent Protein (eGFP), cytosolic”, in assay [3], the proportion of molecules in interaction (homoFRET) was found to be 6.6%.

(Values after publication PMC3433432.)
